Results reported in PMC5692578.

Molecular target: Mcm2-7 hexamer (S. cerevisiae) (UniProt P29469)
Assay: cryo-EM structure

- stoichiometry N: 2 hexamers
Substance: Mcm2-7 hexamer, P29469;P24279;P30665;P29496;P53091;P38132
